Results: patent publication US20160177307

Key:
Assay in all cases: filter
[1] = system: T1, VEGF-165 (Homo sapiens), P15692-4
T1 sequence: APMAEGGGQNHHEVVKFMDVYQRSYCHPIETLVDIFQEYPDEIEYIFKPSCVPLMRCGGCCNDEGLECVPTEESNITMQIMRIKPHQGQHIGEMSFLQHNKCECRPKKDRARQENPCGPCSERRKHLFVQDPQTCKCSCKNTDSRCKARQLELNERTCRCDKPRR

[2] = system: T2, VEGF-121 (Homo sapiens), P15692-9
T2 sequence: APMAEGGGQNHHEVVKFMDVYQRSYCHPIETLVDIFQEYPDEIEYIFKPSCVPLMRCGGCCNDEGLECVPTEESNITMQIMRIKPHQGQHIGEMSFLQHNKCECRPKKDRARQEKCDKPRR

[3] = system: T3, VEGF-164 (Rattus norvegicus), P16612-2; conditions: P=Nap-dU
T3 sequence: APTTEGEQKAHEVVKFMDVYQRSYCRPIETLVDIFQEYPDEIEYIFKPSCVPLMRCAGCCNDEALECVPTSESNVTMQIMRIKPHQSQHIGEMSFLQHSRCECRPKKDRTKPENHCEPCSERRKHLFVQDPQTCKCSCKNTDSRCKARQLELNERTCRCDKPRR

[4] = biological target: PDGF-BB (platelet-derived growth factor BB) (Homo sapiens) (UniProt P01127)
Sequence of PDGF-BB (platelet-derived growth factor BB) (Homo sapiens) (P01127 82-190): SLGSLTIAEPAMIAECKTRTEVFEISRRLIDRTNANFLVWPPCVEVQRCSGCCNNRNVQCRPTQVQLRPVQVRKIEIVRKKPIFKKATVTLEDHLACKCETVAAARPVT

PDGF-AB = PDGF-AB (UniProt P04085+P01127)
Sequence of PDGF-AB (P01127 82-190, chain 2 of 2, other chains not shown): as the sequence (P01127 82-190) above

rVEGF164, P16612-2 = system: T4, rVEGF164, P16612-2; conditions: all P are NapdU, rest DNA; SB18T, 37 C
T4 sequence: T3 sequence

[5] = all P are NapdU, rest DNA, SB18T, 37 C
[6] = NapdU at P, C3 spacer 15,18, specificity control
[7] = VEGF-PDGF heterodimer, no Heg linker, NapdU, BndU

Sequence	Kd ([1]; P=Nap-dU) [nM]	Kd ([2]; P=Nap-dU) [nM]	Kd [3] [nM]	also measured
AATCAGCCGTTCAAGTGCTTGTAGGATTTAAATGGA [4867-31_39]	0.2	0.62	0.09	
AATCAGCCGTTCAAGTGCTTGTAGGATTTAAATGGAA [4867-31_33]	0.11	0.55	0.04	
AATCAGCCGTTCAAGTGCTTGTAGGATTTAAATGGAAT [4867-31_27]	0.11	0.59	0.07	
AGCCGTTCAAGTGCTTGTAGGATTTAAATG [4867-31_52]			0.58	Kd ([1]; NapdU at P): 0.17 nM; Kd ([2]; NapdU at P): 2.8 nM
AGCCGTTCAAGTGCTTGTAGGATTTAAATGG [4867-31_51]			0.074	Kd ([4]; all P are NapdU, rest DNA, specificity control): 126 nM; Kd ([1]; P=Nap-dU, VEGF): 0.196 nM; Kd [1, 5]: 0.11 nM; Kd ([2]; all P are NapdU, rest DNA, SB18T, 37 C, Table 18 gives 728 pM): 0.2 nM; Kd (PDGF-AB; P=Nap-dU): 14.8 nM
AGCCGTTCAAGTGCTTGTAGGATTTAAATGGAA [4867-31_37]	0.092	0.21	0.04	
AGCCGTTCAAGTGCTTGTAGGATTTAAATGGAAT [4867-31_31]	0.17	1	0.12	
ATCAGCCGTTCAAGTGCTTGTAGGATTTAAATGGA [4867-31_40]	0.14	0.7	0.1	
ATCAGCCGTTCAAGTGCTTGTAGGATTTAAATGGAA [4867-31_34]	0.35	0.47	0.05	
ATCAGCCGTTCAAGTGCTTGTAGGATTTAAATGGAAT [4867-31_28]	0.1	0.97	0.07	
CAATCAGCCGTTCAAGTGCTTGTAGGATTTAAATGGA [4867-31_38]	0.17	0.81	0.09	
CAATCAGCCGTTCAAGTGCTTGTAGGATTTAAATGGAA [4867-31_32]	0.1	0.51	0.06	
CAATCAGCCGTTCAAGTGCTTGTAGGATTTAAATGGAAT [4867-31_26]		0.49	0.07	Kd ([1]; P=Nap-dU, SB18T, 37 C): 0.075 nM
CAGCCGTTCAAGTGCTTGTAGGATTTAA [4867-31_48]			142	
CAGCCGTTCAAGTGCTTGTAGGATTTAAA [4867-31_47]				Kd (rVEGF164, P16612-2): 83 nM
CAGCCGTTCAAGTGCTTGTAGGATTTAAAT [4867-31_46]				Kd (rVEGF164, P16612-2): 9.6 nM; Kd [1, 5]: 5.9 nM
CAGCCGTTCAAGTGCTTGTAGGATTTAAATG [4867-31_45]			4.5	Kd ([1]; NapdU at P): 1.1 nM; Kd ([2]; NapdU at P): 3.3 nM
CAGCCGTTCAAGTGCTTGTAGGATTTAAATGG [4867-31_44]			0.38	Kd ([1]; NapdU at P): 0.13 nM; Kd ([2]; NapdU at P): 0.14 nM
CAGCCGTTCAAGTGCTTGTAGGATTTAAATGGAA [4867-31_36]	0.11	0.39	0.06	
CAGCCGTTCAAGTGCTTGTAGGATTTAAATGGAAT [4867-31_30]	0.2	1.4	0.15	
CCGTTCAAGTGCTTGTAGGATTTAAATGGA [4867-31_59]			0.2	Kd ([1]; NapdU at P): 0.16 nM; Kd ([2]; NapdU at P): 0.14 nM
CCGTTCAAGTGCTTTAGATTTAAATGG [4867-31_183]				Kd [4, 6]: 195 nM; Kd ([1]; Nap-dU, C3 spacer at 15 and 18, VEGF): 0.138 nM; Kd ([2]; NapdU at P, C3 spacer 15,18): 0.091 nM; Kd (PDGF-AB; [6]): 14.5 nM
CCGTTCAAGTGCTTTAGATTTAAATGGTTACGTTACACGCGTTTATAGC [4149-8_313]				Kd [4, 7]: 0.0933 nM; Kd ([1]; Nap-dU (VEGF part), Bn-dU (PDGF part), C3, Heg, 2'-OMe, VEGF): 0.258 nM; Kd [2, 7]: 4.31 nM; Kd (PDGF-AB; [7]): 0.165 nM
CCGTTCAAGTGCTTTAGATTTAAATGGTTACGTTACACGCGTTTATAGC [4149-8_314]				Kd ([4]; VEGF-1Heg-PDGF, NapdU, BndU): 0.136 nM; Kd ([1]; Nap-dU, Bn-dU, C3, 1 Heg linker, 2'-OMe, VEGF): 0.143 nM; Kd ([2]; VEGF-1Heg-PDGF, NapdU, BndU): 1.55 nM; Kd (PDGF-AB; VEGF-1Heg-PDGF, NapdU, BndU): 0.111 nM
